Assay [1] has as its target unidentified antigen on CHO PD-L1 cells bound by pertuzumab (the filing speculates hamster HER2). Kind of assay: flow cytometry, CHO PD-L1 cells (residual binding). A general note: A flow cytometer gives signals particle by particle.
For assay [2] the target is unchanged. Kind of assay: flow cytometry, CHO PD-L1 cells; reference pertuzumab.

For orientation: EC50 means the concentration giving half of the maximal effect. For the substance pertuzumab (antibody), the EC50 in assay [1] turned out to be 1.29 nM. The substance also displayed a rel. EC50 (EC50 reference/EC50 sample) in assay [2] of 1.
